Drawing on article PMC10786891, “Massively parallel profiling of RNA-targeting CRISPR-Cas13d”, this text covers Kd for 27 molecules.

Usually Kd stands for a measure of binding affinity in units of concentration.

Sequences and labels used below:
T1: EsCas13d, nuclease-dead (Eubacterium siraeum, UniProt B0MS50, R295A;H300A;R849A;H854A)
T1 sequence: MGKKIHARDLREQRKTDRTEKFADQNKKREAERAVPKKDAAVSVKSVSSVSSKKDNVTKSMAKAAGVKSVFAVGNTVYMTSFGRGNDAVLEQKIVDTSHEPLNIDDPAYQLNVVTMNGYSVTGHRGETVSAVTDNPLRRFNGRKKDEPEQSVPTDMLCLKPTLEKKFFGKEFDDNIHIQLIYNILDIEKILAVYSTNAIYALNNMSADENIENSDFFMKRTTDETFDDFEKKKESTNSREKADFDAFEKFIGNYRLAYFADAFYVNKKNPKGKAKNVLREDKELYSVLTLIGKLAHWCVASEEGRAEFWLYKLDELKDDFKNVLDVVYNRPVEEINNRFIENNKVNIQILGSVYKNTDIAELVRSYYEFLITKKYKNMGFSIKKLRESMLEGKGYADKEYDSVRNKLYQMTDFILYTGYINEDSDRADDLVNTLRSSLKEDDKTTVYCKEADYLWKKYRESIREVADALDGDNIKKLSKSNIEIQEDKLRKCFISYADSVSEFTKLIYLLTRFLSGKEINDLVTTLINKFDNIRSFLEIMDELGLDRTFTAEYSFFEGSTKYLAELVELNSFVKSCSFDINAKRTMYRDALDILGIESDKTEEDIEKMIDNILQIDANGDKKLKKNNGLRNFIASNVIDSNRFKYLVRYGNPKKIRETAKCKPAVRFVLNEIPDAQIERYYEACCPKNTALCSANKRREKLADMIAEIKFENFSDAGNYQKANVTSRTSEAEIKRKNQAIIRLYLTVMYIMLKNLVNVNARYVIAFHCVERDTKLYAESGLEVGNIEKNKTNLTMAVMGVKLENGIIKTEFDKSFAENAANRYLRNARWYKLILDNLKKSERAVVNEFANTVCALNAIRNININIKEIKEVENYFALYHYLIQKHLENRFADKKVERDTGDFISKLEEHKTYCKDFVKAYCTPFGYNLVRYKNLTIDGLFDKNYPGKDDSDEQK

B1: target 1 insC 3' of 11,insG 3' of 8 (mixed)
RNA 1: CACCCGUGCAAAAAUGCAGGGGUCUAAAACUGAGCGGAUAACCUCUCUAUGG
RNA 2: GGGAAUGGAUCCACAUCUACGAAUUCGUACCAUAGAGAGGUCUAUGCCGCUCACCGAGAUCGGAAGAGCACACGU
B2: target 1 del16,del19 (mixed)
RNA 1: CACCCGUGCAAAAAUGCAGGGGUCUAAAACUGAGCGGAUAACCUCUCUAUGG
RNA 2: GGGAAUGGAUCCACAUCUACGAAUUCGUACCAAGGAGGUUAUCCGCUCACCGAGAUCGGAAGAGCACACGU
B3: target 1 C6A,A14C (mixed)
RNA 1: CACCCGUGCAAAAAUGCAGGGGUCUAAAACUGAGCGGAUAACCUCUCUAUGG
RNA 2: GGGAAUGGAUCCACAUCUACGAAUUCGUACCAUAGAGCGGUUAUCAGCUCACCGAGAUCGGAAGAGCACACGU
B4: target 1 insC 3' of 14,insA 3' of 8 (mixed)
RNA 1: CACCCGUGCAAAAAUGCAGGGGUCUAAAACUGAGCGGAUAACCUCUCUAUGG
RNA 2: GGGAAUGGAUCCACAUCUACGAAUUCGUACCAUAGAGACGGUUAUACCGCUCACCGAGAUCGGAAGAGCACACGU
B5: target 1 insC 3' of 16,insG 3' of 3 (mixed)
RNA 1: CACCCGUGCAAAAAUGCAGGGGUCUAAAACUGAGCGGAUAACCUCUCUAUGG
RNA 2: GGGAAUGGAUCCACAUCUACGAAUUCGUACCAUAGACGAGGUUAUCCGCUGCACCGAGAUCGGAAGAGCACACGU
B6: target 1 C6G,A20U (mixed)
RNA 1: CACCCGUGCAAAAAUGCAGGGGUCUAAAACUGAGCGGAUAACCUCUCUAUGG
RNA 2: GGGAAUGGAUCCACAUCUACGAAUUCGUACCUUAGAGAGGUUAUCGGCUCACCGAGAUCGGAAGAGCACACGU
B7: target 1 insU 3' of 14,insG 3' of 3 (mixed)
RNA 1: CACCCGUGCAAAAAUGCAGGGGUCUAAAACUGAGCGGAUAACCUCUCUAUGG
RNA 2: GGGAAUGGAUCCACAUCUACGAAUUCGUACCAUAGAGAUGGUUAUCCGCUGCACCGAGAUCGGAAGAGCACACGU
B8: target 1 G5C,U19C (mixed)
RNA 1: CACCCGUGCAAAAAUGCAGGGGUCUAAAACUGAGCGGAUAACCUCUCUAUGG
RNA 2: GGGAAUGGAUCCACAUCUACGAAUUCGUACCACAGAGAGGUUAUCCCCUCACCGAGAUCGGAAGAGCACACGU
B9: target 1 C2A,U8C (mixed)
RNA 1: CACCCGUGCAAAAAUGCAGGGGUCUAAAACUGAGCGGAUAACCUCUCUAUGG
RNA 2: GGGAAUGGAUCCACAUCUACGAAUUCGUACCAUAGAGAGGUUACCCGCUAACCGAGAUCGGAAGAGCACACGU
B10: target 1 insG 3' of 19,insA 3' of 19 (mixed)
RNA 1: CACCCGUGCAAAAAUGCAGGGGUCUAAAACUGAGCGGAUAACCUCUCUAUGG
RNA 2: GGGAAUGGAUCCACAUCUACGAAUUCGUACCAUGAAGAGAGGUUAUCCGCUCACCGAGAUCGGAAGAGCACACGU
B11: target 1 U10G,U11C (mixed)
RNA 1: CACCCGUGCAAAAAUGCAGGGGUCUAAAACUGAGCGGAUAACCUCUCUAUGG
RNA 2: GGGAAUGGAUCCACAUCUACGAAUUCGUACCAUAGAGAGGCGAUCCGCUCACCGAGAUCGGAAGAGCACACGU
B12: target 1 insA 3' of 22,insC 3' of 9 (mixed)
RNA 1: CACCCGUGCAAAAAUGCAGGGGUCUAAAACUGAGCGGAUAACCUCUCUAUGG
RNA 2: GGGAAUGGAUCCACAUCUACGAAUUCGUACACAUAGAGAGGUUACUCCGCUCACCGAGAUCGGAAGAGCACACGU
B13: target 1 C6A,A14U (mixed)
RNA 1: CACCCGUGCAAAAAUGCAGGGGUCUAAAACUGAGCGGAUAACCUCUCUAUGG
RNA 2: GGGAAUGGAUCCACAUCUACGAAUUCGUACCAUAGAGUGGUUAUCAGCUCACCGAGAUCGGAAGAGCACACGU
B14: target 1 insC 3' of 22,insC 3' of 18 (mixed)
RNA 1: CACCCGUGCAAAAAUGCAGGGGUCUAAAACUGAGCGGAUAACCUCUCUAUGG
RNA 2: GGGAAUGGAUCCACAUCUACGAAUUCGUACCCAUACGAGAGGUUAUCCGCUCACCGAGAUCGGAAGAGCACACGU
B15: target 1 del5,del15 (mixed)
RNA 1: CACCCGUGCAAAAAUGCAGGGGUCUAAAACUGAGCGGAUAACCUCUCUAUGG
RNA 2: GGGAAUGGAUCCACAUCUACGAAUUCGUACCAUAGAAGGUUAUCCCUCACCGAGAUCGGAAGAGCACACGU
B16: target 1 A1C,G5U (mixed)
RNA 1: CACCCGUGCAAAAAUGCAGGGGUCUAAAACUGAGCGGAUAACCUCUCUAUGG
RNA 2: GGGAAUGGAUCCACAUCUACGAAUUCGUACCAUAGAGAGGUUAUCCUCUCCCCGAGAUCGGAAGAGCACACGU
B17: target 1 insC 3' of 20,insU 3' of 14 (mixed)
RNA 1: CACCCGUGCAAAAAUGCAGGGGUCUAAAACUGAGCGGAUAACCUCUCUAUGG
RNA 2: GGGAAUGGAUCCACAUCUACGAAUUCGUACCACUAGAGAUGGUUAUCCGCUCACCGAGAUCGGAAGAGCACACGU
B18: target 1 insA 3' of 15,insG 3' of 14 (mixed)
RNA 1: CACCCGUGCAAAAAUGCAGGGGUCUAAAACUGAGCGGAUAACCUCUCUAUGG
RNA 2: GGGAAUGGAUCCACAUCUACGAAUUCGUACCAUAGAGAAGGGUUAUCCGCUCACCGAGAUCGGAAGAGCACACGU
B19: target 1 insU 3' of 20,insA 3' of 5 (mixed)
RNA 1: CACCCGUGCAAAAAUGCAGGGGUCUAAAACUGAGCGGAUAACCUCUCUAUGG
RNA 2: GGGAAUGGAUCCACAUCUACGAAUUCGUACCAUUAGAGAGGUUAUCCGACUCACCGAGAUCGGAAGAGCACACGU
B20: target 1 insA 3' of 8,insU 3' of 5 (mixed)
RNA 1: CACCCGUGCAAAAAUGCAGGGGUCUAAAACUGAGCGGAUAACCUCUCUAUGG
RNA 2: GGGAAUGGAUCCACAUCUACGAAUUCGUACCAUAGAGAGGUUAUACCGUCUCACCGAGAUCGGAAGAGCACACGU
B21: target 1 insG 3' of 22,insA 3' of 19 (mixed)
RNA 1: CACCCGUGCAAAAAUGCAGGGGUCUAAAACUGAGCGGAUAACCUCUCUAUGG
RNA 2: GGGAAUGGAUCCACAUCUACGAAUUCGUACGCAUAAGAGAGGUUAUCCGCUCACCGAGAUCGGAAGAGCACACGU
B22: target 1 C2U,U19G (mixed)
RNA 1: CACCCGUGCAAAAAUGCAGGGGUCUAAAACUGAGCGGAUAACCUCUCUAUGG
RNA 2: GGGAAUGGAUCCACAUCUACGAAUUCGUACCAGAGAGAGGUUAUCCGCUUACCGAGAUCGGAAGAGCACACGU
B23: target 1 A1U,G5U (mixed)
RNA 1: CACCCGUGCAAAAAUGCAGGGGUCUAAAACUGAGCGGAUAACCUCUCUAUGG
RNA 2: GGGAAUGGAUCCACAUCUACGAAUUCGUACCAUAGAGAGGUUAUCCUCUCUCCGAGAUCGGAAGAGCACACGU
B24: target 1 insC 3' of 13,insG 3' of 2 (mixed)
RNA 1: CACCCGUGCAAAAAUGCAGGGGUCUAAAACUGAGCGGAUAACCUCUCUAUGG
RNA 2: GGGAAUGGAUCCACAUCUACGAAUUCGUACCAUAGAGAGCGUUAUCCGCUCGACCGAGAUCGGAAGAGCACACGU
B25: target 1 insU 3' of 18,insA 3' of 4 (mixed)
RNA 1: CACCCGUGCAAAAAUGCAGGGGUCUAAAACUGAGCGGAUAACCUCUCUAUGG
RNA 2: GGGAAUGGAUCCACAUCUACGAAUUCGUACCAUAUGAGAGGUUAUCCGCAUCACCGAGAUCGGAAGAGCACACGU
B26: target 1 C7U,G17U (mixed)
RNA 1: CACCCGUGCAAAAAUGCAGGGGUCUAAAACUGAGCGGAUAACCUCUCUAUGG
RNA 2: GGGAAUGGAUCCACAUCUACGAAUUCGUACCAUAUAGAGGUUAUUCGCUCACCGAGAUCGGAAGAGCACACGU
B27: target 1 C7A,C21U (mixed)
RNA 1: CACCCGUGCAAAAAUGCAGGGGUCUAAAACUGAGCGGAUAACCUCUCUAUGG
RNA 2: GGGAAUGGAUCCACAUCUACGAAUUCGUACUAUAGAGAGGUUAUACGCUCACCGAGAUCGGAAGAGCACACGU

This data set deals with T1, EsCas13d, nuclease-dead. Description: crRNA (strand 1, pre-loaded); Mg2+; 40 mM Tris-HCl pH 7.5, 150 mM NaCl, 6 mM MgCl2, 1 mM DTT, 0.1% Tween-20, 0.2 mg/ml BSA; 25 C; 10 min per concentration, then washed. To be noted: tags: His6-TwinStrep-SUMO cleaved; N-terminal SNAP kept (SNAP-Surface 488); label: 3' end held by stalled T7 RNA polymerase.
In turn, B1 registered a Kd of 64 ± 8 nM. To B2 belongs 73 ± 20 nM. To B3 belongs 11.7 ± 0.5 nM; to B4, 49 ± 5 nM. To B5 belongs 50 ± 8 nM. In the case of B6, the Kd stood at 40.5 ± 2.5 nM.

Regarding B7, the Kd turned out to be 34 ± 4 nM. With B8, the Kd stood at 32 ± 6 nM.

As for B9, binding was put at a Kd of 5.2 ± 0.4 nM.

B10 returned a Kd of 50 ± 7 nM. B11 returned an equilibrium dissociation constant (Kd) of 14.1 ± 0.6 nM.

In turn, B12 registered a Kd of 14.4 ± 0.6 nM. The same measure for B13: 54 ± 9 nM.

The molecule B14 gave a Kd of 41 ± 16 nM. Take B15: the Kd is 27.3 ± 2.6 nM. To B16 belongs 33 ± 4 nM; to B17, 5.5 ± 0.8 nM.

B18 had a Kd of 10.6 ± 1.2 nM. Consider B19, for which the Kd was 12.2 ± 0.9 nM.

In turn, B20 yielded an equilibrium dissociation constant (Kd) of 22 ± 1.8 nM. Compared with the last molecule, the Kd is about 1.8-fold higher. To B21 belongs 63 ± 10 nM; to B22, 52 ± 4 nM; to B23, 73 ± 11 nM. Molecule B24 registered an equilibrium dissociation constant (Kd) of 11.4 ± 0.5 nM. On to B25, for which binding was put at a Kd of 20.9 ± 1.7 nM. The same measure for B26: 19.7 ± 1.8 nM; for B27: 6.56 ± 0.31 nM.
